In patent US20250109199A1 one finds Kd and fold higher affinity than LA(2-3) data, which are given here for six substances.

For assay [1], the target named is EEEV virus-like particles (VLPs), strain PE-6 (Eastern equine encephalitis virus, strain PE-6).
The target in assay [2] is EEEV virus-like particles (VLPs), strain FL93-939, wild type (Eastern equine encephalitis virus, strain FL93-939).

Regarding “monovalent VLDLR LA(2-3) (from UniProt P98155 70-151) (receptor)”, the Kd in assay [1] was found to be 14000 nM.
Same read-out and setting: as for “monovalent VLDLR LA(1-5) (from UniProt P98155 28-231) (receptor)”, the figure is 14.5 nM.
In the case of “monovalent VLDLR LA(1-6) (from UniProt P98155 28-275) (receptor)”, the Kd in assay [1] came to 15 nM; in assay [2] it was 50 nM.
“monovalent VLDLR LA(1-4) (from UniProt P98155 28-190) (receptor)”: the Kd in assay [1] was found to be 37 nM.
Same read-out and setting: as for “monovalent VLDLR LA(1-3) (from UniProt P98155 31-151) (receptor)”, the figure is 33.8 nM.
Regarding “monovalent VLDLR LA(1-2) (from UniProt P98155 31-110) (receptor)”, in assay [1], the Kd is 1000 nM and the fold higher affinity than LA(2-3) is 10 fold.

The Kd is the constant that tells how readily two partners part at equilibrium. Read a high Kd as a looser complex.
